Drawing on US20230355784A1, this text covers EC50 for 3 molecules.

The EC50 is the midpoint of the concentration-response curve.

Square brackets hold non-standard residues; d marks the D form. Ends that are not written are not given here.

This assay deals with mAB anti V5 (Thermo Scientific) (mouse). The experiment in a line: 1 ug/ml mouse anti V5 with increasing SADC, capture on streptavidin plate, bound IgG by ELISA.

Take IPNPLLGLDGGSGDYKDDDDKGK[BiotinAca]GC (peptide, part only; not given: transferrin scaffold, not shown: large carriers, also: bound to transferrin scaffold) [SADC with transferrin scaffold carrying the tagged V5 peptide]: the EC50 came out at 0.007 µg/mL.

As to IPNPLLGLDGGSGDYKDDDDKGK[BiotinAca]GC (peptide, part only; not given: albumin scaffold, not shown: large carriers, also: bound to albumin scaffold) [SADC with albumin scaffold carrying the tagged V5 peptide], the EC50 was determined as 0.0279 µg/mL.

IPNPLLGLDGGSGDYKDDDDKGK[BiotinAca]GC (peptide, part only; not given: haptoglobin scaffold, part only, also: bound to haptoglobin scaffold) [SADC with haptoglobin scaffold carrying the tagged V5 peptide]: the EC50 was found to be 0.0555 µg/mL.
